Where no end group is shown, it is not given here.
Tests used:
[1] = molecular target: T1, Arc N-lobe (Arc-NL, Arc 207-277) (human, UniProt Q7LC44); assay: ITC; 15 μM E5/H11 (titrant) into 1.5 μM Arc-NL (titrate), TBS (20 mM Tris-HCl pH 7.5, 150 mM NaCl), 20 °C, 1:1 binding model, four replicates; settings: both partners purified
T1 construct: Activity-regulated cytoskeleton-associated protein (Arc), N-lobe, residues 207-277; identical for human, rat and mouse Arc-NL; construct His6-MBP-TEV-NL in pETMBP_1a; 8.9 kDa as printed; also called human Arc N-lobe; source: E. coli BL21(DE3), purified (Ni-NTA, tag cleavage, reverse Ni-NTA, SEC); not shown: His6, N-terminal, cleaved; MBP, N-terminal, cleaved

[2] = molecular target: T1, Arc N-lobe (Arc-NL, Arc 207-277); assay: ITC; displacement assay: 100 μM E5/H11 (titrant) into 10 μM Arc-NL saturated with 100 μM P1, TBS, 20 °C; apparent constants, one replicate; settings: both partners purified
[3] = molecular target: T2, full-length rat Arc with a poly-Ala mutation in residues 113-119 (rArcFL-7A) (rat, UniProt Q63053, poly-Ala mutation in residues 113-119); assay: SEC-MALS + other: SEC-SAXS; rArcFL-7A alone and with E5, C11 or both; 20 mM Tris pH 7.5, 150 mM NaCl, 0.5 mM TCEP; 1:1.3 protein-to-nanobody ratio for SAXS; settings: both partners purified
T2 construct: Activity-regulated cytoskeleton-associated protein (Arc), rat, full length, residues 113-119 replaced by alanines; expressed with an N-terminal His6-MBP fusion in pHMGWA; also called flArc dimeric mutant; dimeric full-length Arc; not shown: His6, N-terminal, cleaved; MBP, N-terminal, cleaved

[4] = molecular target: the molecule itself; assay: as above
[5] = molecular target: T3, Arc N-lobe (Arc-NL, Arc 207-277) (human, UniProt Q7LC44 207-277); assay: ITC; 2 mM P1 (titrant) into 200 μM Arc-NL (titrate), TBS, 20 °C, three sequential titrations concatenated, 1:1 binding model, one replicate; settings: both partners purified
T3 construct: Activity-regulated cytoskeleton-associated protein (Arc), N-lobe, residues 207-277; identical for human, rat and mouse Arc-NL; construct His6-MBP-TEV-NL in pETMBP_1a; 8.9 kDa as printed; also called human Arc N-lobe; source: E. coli BL21(DE3), purified (Ni-NTA, tag cleavage, reverse Ni-NTA, SEC); not shown: His6, N-terminal, cleaved; MBP, N-terminal, cleaved
T3 sequence (looked up): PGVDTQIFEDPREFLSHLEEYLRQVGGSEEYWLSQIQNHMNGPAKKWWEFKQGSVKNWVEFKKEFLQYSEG

| Binder | Kd [1] [nM] | dH [1] [kcal/mol] | dH-App (Arc-NL saturated with P1) [2] [kcal/mol] | also measured |
| --- | --- | --- | --- | --- |
| anti-Arc nanobody E5 (VHH, alpaca nanobody; 12.8 kDa as printed; provided by Nanotag Biotechnologies in the vector pNT1433 (His6-TEV-E5); CDR3 holds a PxW motif; source: E. coli BL21(DE3), purified (Ni-NTA, tag cleavage, reverse Ni-NTA, SEC); not shown: His6, N-terminal, cleaved) VHH: EVQLQESGGGLVQAGGSLRLSCAASGSIFSGNAMGWYRQAPGKQREVVAVISAGNSSNYVDSVKGRFTISRDNAKNTVYLQMNSLKPEDTAVYYCNVVKRGPQWGMEWGKGTLVTVSS | 0.99 | -23.2 | -12 | stoichiometry Arc:E5:C11 of the ternary complex [3]: 1 E5 per Arc chain (2 Arc : 2 E5 : 2 C11); stoichiometry N [3]: 1 E5 per Arc chain (2 E5 : 2 Arc) |
| anti-Arc nanobody H11 (VHH, alpaca nanobody; 14.1 kDa as printed; provided by Nanotag Biotechnologies in the vector pNT1433 (His6-TEV-H11); CDR3 holds a PxY motif; source: E. coli BL21(DE3), purified (Ni-NTA, tag cleavage, reverse Ni-NTA, SEC); not shown: His6, N-terminal, cleaved) VHH: EVQLLESGGGLVQAGDSLRLSCAASGRTFSAYAMGWFRQAPGKEREFVAAISWSGNSTYYADSVKGRFTISRDNAKNTVYLQMNSLKPEDTAIYYCAARKPMYRVDISKGQNYDYWGQGTQVTVSS | 1.14 | -23.5 | -10.3 | – |
| full-length rat Arc with a poly-Ala mutation in residues 113-119 (rArcFL-7A) (natural protein, UniProt Q63053 1-396, looked up, Activity-regulated cytoskeleton-associated protein (Arc), rat, full length, residues 113-119 replaced by alanines; expressed with an N-terminal His6-MBP fusion in pHMGWA; also called flArc dimeric mutant; dimeric full-length Arc; not shown: His6, N-terminal, cleaved; MBP, N-terminal, cleaved) MELDHMTTGGLHAYPAPRGGPAAKPNVILQIGKCRAEMLEHVRRTHRHLLTEVSKQVERELKGLHRSVGKLENNLDGYVPTGDSQRWKKSIKACLCRCQETIANLERWVKREAAAAAAAFYRLERWADRLESMGGKYPVGSEPARHTVSVGVGGPEPYCQEADGYDYTVSPYAITPPPAAGELPEQESVGAQQYQSWVPGEDGQPSPGVDTQIFEDPREFLSHLEEYLRQVGGSEEYWLSQIQNHMNGPAKKWWEFKQGSVKNWVEFKKEFLQYSEGTLSREAIQRELDLPQKQGEPLDQFLWRKRDLYQTLYVDAEEEEIIQYVVGTLQPKFKRFLRHPLPKTLEQLIQRGMEVQDGLEQAAEPSVTPLPTEDETEALTPALTSESVASDRTQPE | – | – | – | stoichiometry N [4]: 2 |
| YGRKKRRQRRRGGRIPSYRYR (also: FITC label, position not given here, stretch of the transmembrane AMPAR regulatory protein γ2 (TARPγ2, stargazin); the split into TAT, linker and TARPγ2 stretch is mine; also called TARPγ2-derived peptide; source: synthetic peptide, bought: GenScript Biotech) [FITC-labelled, TAT-tagged TARPγ2 peptide (forward peptide P1)] | – | – | – | Kd [5]: 5310 nM; dH [5]: -14.9 kcal/mol |
